Assay results taken from article PMC2553597 (Nucleic Acids Research, 2008).
Like-named read-outs stand apart in the source and are kept apart here. Values belong to the binder of their own block, whether it stands above or below them.

B5: human RAD54B N-terminal fragment, amino acid residues 26-225 (RAD54B_(26–225)) (domain or fragment, UniProt Q9Y620 26-225, looked up)
chain: SNPGLNEEITKLNPDIKLFEGVAINNTFLPSQNDLRICSLNLPSEESTREINNRDNCSGKYCFEAPTLATLDPPHTVHSAPKEVAVSKEQEEKSDSLVKYFSVVWCKPSKKKHKKWEGDAVLIVKGKSFILKNLEGKDIGRGIGYKFKELEKIEEGQTLMICGKEIEVMGVISPDDFSSGRCFQLGGGSTAISHSSQVAR

Columns and labels:
[1] = target: T1, RAD54B26-225 (Homo sapiens, UniProt Q9Y620 26-225); assay: EMSA
T1 sequence: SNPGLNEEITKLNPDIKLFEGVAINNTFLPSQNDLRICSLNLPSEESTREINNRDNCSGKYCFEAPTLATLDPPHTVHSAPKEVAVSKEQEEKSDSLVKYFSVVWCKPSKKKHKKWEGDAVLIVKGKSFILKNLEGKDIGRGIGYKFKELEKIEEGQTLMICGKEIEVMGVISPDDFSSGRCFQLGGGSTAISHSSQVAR

[2] = target: T1, RAD54B26-225; assay: EMSA; remark: listed apart in the source
[3] = target: T1, RAD54B26-225; assay: EMSA; remark: listed apart in the source
[4] = target: B5; assay: pull-down
[5] = target: the molecule itself; assay: SEC
[6] = target: T2, DMC1 (UniProt Q14565 1-340); assay: pull-down
T2 sequence (looked up): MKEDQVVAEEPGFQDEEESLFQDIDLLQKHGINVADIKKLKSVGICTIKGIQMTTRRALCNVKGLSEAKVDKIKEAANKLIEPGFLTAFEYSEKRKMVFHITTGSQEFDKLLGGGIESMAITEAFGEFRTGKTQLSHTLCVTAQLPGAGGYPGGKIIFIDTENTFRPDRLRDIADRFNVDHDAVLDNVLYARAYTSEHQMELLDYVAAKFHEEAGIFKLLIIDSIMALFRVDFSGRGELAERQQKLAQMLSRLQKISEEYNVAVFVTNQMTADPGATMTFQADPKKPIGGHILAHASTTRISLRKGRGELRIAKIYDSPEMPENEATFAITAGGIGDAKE

[7] = target: T1, RAD54B26-225; assay: EMSA; remark: listed apart in the source

B1: dsDNA (oligos 2/2a) (dsDNA)
DNA 1: TGGGTCAACGTGGGCAAAGATGTCCTAGCAATGTAATCGTCTATGACGTT
DNA 2: AACGTCATAGACGATTACATTGCTAGGACATCTTTGCCCACGTTGACCCA
binding result [1]: binds

B2: 3'-PX junction (oligos 2/6/7/10) (structured_DNA)
DNA 1: TGGGTCAACGTGGGCAAAGATGTCCTAGCAATGTAATCGTCTATGACGTT
DNA 2: GTCGGATCCTCTAGACAGCTCCATGATCACTGGCACTGGTAGAATTCGGC
DNA 3: CAACGTCATAGACGATTACATTGCTACATGGAGCTGTCTAGAGGATCCGA
DNA 4: GGACATCTTTGCCCACGTTGACCC
binding result [2]: binds

B3: 5'-flapped DNA (oligos 2/8/15) (structured_DNA)
DNA 1: TGGGTCAACGTGGGCAAAGATGTCCTAGCAATGTAATCGTCTATGACGTT
DNA 2: CAACGTCATAGACGATTACATTGCTAATCACTGGCACTGGTAGAATTCGGC
DNA 3: TGCCGAATTCTACCAGTGCCAGTGAT
binding result [3]: binds

binding result [4]: binds
B4: GST-fused DMC1 deletion mutant, amino acid residues 153-214 (fragment VI) (domain or fragment, UniProt Q14565 153-214, looked up)
chain: GGKIIFIDTENTFRPDRLRDIADRFNVDHDAVLDNVLYARAYTSEHQMELLDYVAAKFHEEA

binding result [4]: binds
Binder: ASTTRISLRKGRGELRIAKIYDSPEMPENEATFAITAGGIGDAKE (domain or fragment, UniProt Q14565 296-340, looked up) [GST-fused DMC1 deletion mutant, amino acid residues 296-340 (fragment X)]

Binder: B5
stoichiometry N [5]: 2 | binding result [6]: binds

Binder: AAAAAAAAAAAAAAAAAAAAAAAAAAAAAAAAAAAAAAAAAAAA (ssDNA) [polyA 44-mer]
binding result [7]: binds
